Data: patent publication US20240018502

What was measured:
[1] = molecular target: cynomolgus monkey complement protein C3 (endogenous, in vitreous humor)
[2] = molecular target: human complement protein C3
[3] = molecular target: complement protein C3 of cynomolgus monkey plasma
[4] = molecular target: T1, quenched fluorescence peptidic substrate containing SKGR/SL (P4-P2' of the PAR-2 activation cleavage site, Ser 33 to Leu 38)
T1 chain: SKGRSL

B1: Modified MTSP-1 protease domain Q38H/I41S/D60bT/F60eS/Y60gW/D96K/F97G/ins97aV/T98P/F99L/C122S/G151H/Q175L/Q192D (protein)
chain: VVGGTDADEGEWPWQVSLHALGHGHSCGASLISPNWLVSAAHCYIDTRGSRWSDPTQWTAFLGLHDQSQRSAPGVQERRLKRIISHPFFNKGVPLDYDIALLELEKPAEYSSMVRPISLPDASHVFPAGKAIWVTGWGHTQYGGTHALILQKGEIRVINQTTCENLLPQLITPRMMCVGFLSGGVDSCDGDSGGPLSSVEADGRIFQAGVVSWGDGCAQRNKPGVYTRLPLFRDWIKENTGV
In the case of B1, the “C3 levels in vitreous humor by ELISA after one intravitreal dose of 125 ug” value [1] is reported as “C3 was undetectable in the variant-treated eye 1, 2, 6, and 7 days after the single injection of the anti-C3 MTSP polypeptide”, the “ED50 of cleavage of human C3” value [2] is reported as “cleaves human C3 in the assay described herein with an ED50 of 2 nM” and the “anti-C3 activity, fold increase owed to D60bT (against the variant with this residue reverted to wild type)” value [2] is reported as “D60bT-This mutation increases anti-C3 activity by approximately 2.8-fold”. For the same protein, the “anti-C3 activity, fold increase owed to D96K (against the variant with this residue reverted to wild type)” value [2] was “D96K-This mutation increases anti-C3 activity by approximately 2.6-fold”, the “anti-C3 activity, fold increase owed to F60eS (against the variant with this residue reverted to wild type)” value [2] was “F60eS-This mutation increases anti-C3 activity by approximately 1.9-fold” and the “anti-C3 activity, fold increase owed to F97G (against the variant with this residue reverted to wild type)” value [2] was “F97G-This mutation increases anti-C3 activity by approximately 4.3-fold and increases substrate specificity”. The “anti-C3 activity, fold increase owed to F99L (against the variant with this residue reverted to wild type)” value [2] was “F99L: This mutation increases anti-C3 activity by approximately 3.9-fold”, the “anti-C3 activity, fold increase owed to G151H (against the variant with this residue reverted to wild type)” value [2] was “G151H: This mutation increases anti-C3 activity by approximately 1.2-fold” and the “anti-C3 activity, fold increase owed to I41S (against the variant with this residue reverted to wild type)” value [2] was “I41S-This mutation increases anti-C3 activity by approximately 44.6-fold”. The “anti-C3 activity, fold increase owed to Q38H (against the variant with this residue reverted to wild type)” value [2] was “Q38H-This mutation increases C3 activity by approximately 3.7-fold”, the “anti-C3 activity, fold increase owed to Q175L (against the variant with this residue reverted to wild type)” value [2] was “Q175L: This mutation increases anti-C3 activity by approximately 4.3-fold” and the “anti-C3 activity, fold increase owed to T98P (against the variant with this residue reverted to wild type)” value [2] was “T98P: This mutation ... increases anti-C3 activity by approximately 2.2-fold”. For the same protein, the “anti-C3 activity, fold increase owed to Y60gW (against the variant with this residue reverted to wild type)” value [2] was “Y60gW-This mutation increases the enzyme's substrate specificity and increases anti-C3 activity by approximately 4.8-fold”, the “anti-C3 activity, fold increase owed to the insertion 97aV (against the variant without the insertion)” value [2] was “Insert 97aV: This mutation ... increases anti-C3 activity by approximately 1.7-fold” and the “reduction of hemolytic activity (C3H50) after preincubation of C3 with the variant” value [2] was “reduces the hemolytic activity of the serum by approximately 80%”.

B2: Q38H/I41S/D60bT/F60eS/Y60gW/D96V/F97G/ins97aV/T98P/F99L/C122S/G151H/Q175L/Q192D (protein)
chain: VVGGTDADEGEWPWQVSLHALGHGHSCGASLISPNWLVSAAHCYIDTRGSRWSDPTQWTAFLGLHDQSQRSAPGVQERRLKRIISHPFFNVGVPLDYDIALLELEKPAEYSSMVRPISLPDASHVFPAGKAIWVTGWGHTQYGGTHALILQKGEIRVINQTTCENLLPQLITPRMMCVGFLSGGVDSCDGDSGGPLSSVEADGRIFQAGVVSWGDGCAQRNKPGVYTRLPLFRDWIKENTGV
Protein B2 has an ED50 80% cynomolgus plasma (nM), C3 cleavage, C3 ELISA [3] of 103 nM, an ED50 80% human plasma (60 min, nM), C3 cleavage [2] of 27 nM and an SKGR/SL kcat/Km [4] of 4990 M⁻¹ s⁻¹.

B3: Q38H/I41S/D60bT/F60eS/Y60gW/D96K/F97D/ins97aA/T98P/F99L/C122S/G151N/Q175L/Q192D (protein)
chain: VVGGTDADEGEWPWQVSLHALGHGHSCGASLISPNWLVSAAHCYIDTRGSRWSDPTQWTAFLGLHDQSQRSAPGVQERRLKRIISHPFFNKDAPLDYDIALLELEKPAEYSSMVRPISLPDASHVFPAGKAIWVTGWGHTQYGGTNALILQKGEIRVINQTTCENLLPQLITPRMMCVGFLSGGVDSCDGDSGGPLSSVEADGRIFQAGVVSWGDGCAQRNKPGVYTRLPLFRDWIKENTGV
For B3, the ED50 80% cynomolgus plasma (nM), C3 cleavage, C3 ELISA [3] was 37 nM, the ED50 80% human plasma (60 min, nM), C3 cleavage [2] was 44 nM and the SKGR/SL kcat/Km [4] was 2060 M⁻¹ s⁻¹.
